Series [1] is described as follows: folding stability dG unfold from trypsin proteolysis; higher = more stable. An outline of the steps:
(§1)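 Unfolding free energy was derived, per protease or combined, against a sequence-predicted unfolded-state K50 and a shared folded-state K50, starting from K50 inferred by Bayesian fitting of sequencing counts. Digestion with trypsin and chymotrypsin was carried out on designed mini-proteins under 80 residues without cysteine in a PA-tagged cDNA display construct. Only designs with AlphaFold2 dimer inter-PAE above 15 were kept.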

Series [2] can be described thus: folding stability dG unfold from chymotrypsin proteolysis; higher = more stable. An outline of the steps:
as §1

Series [3] in a line: folding stability dG unfold (combined trypsin and chymotrypsin); higher = more stable. In a few lines: as §1

± gives the half width of the 95% confidence interval.

The text below walks through data of the supplement of paper PMC12764529.

Regarding “SAGGKFDIMVKVEPPDGKEEELPIKFDSPEEIIEEARAIAEQHGPGDKLKVEIYYPGTGRPIEFEIPSAGGS [r8_107_TrROS]”, the “folding stability dG unfold” value is 0.799 ± 0.043 kcal/mol in series [1], -0.17 ± 0.18 kcal/mol in series [2] and 0.336 ± 0.34 kcal/mol in series [3].
Turning to “SAGGKFKIVKIEVEEKTVKVKNKDGKIEKKKVKVIKVKIYKDGKLIKEVTFKSKEDMLNALKELLKKSAGGS [r8_21_TrROS_Hall]”, the “folding stability dG unfold” value in series [1] came to 3.06 ± 0.11 kcal/mol; in series [2], 4.53 ± 0.23 kcal/mol; in series [3], 4.35 ± 0.3 kcal/mol.
Consider “SAGGKGPKKIILPLKFKIKTKPNEKKSKIKFKLSLKLFPKAKKVEVKSSIKPLKNNYALLDFDIVIEASAGG [r13_872_TrMRF]”, for which the “folding stability dG unfold” value in series [1] turned out to be 3.53 ± 0.23 kcal/mol; in series [2], 3.6 ± 0.13 kcal/mol; in series [3] it was 3.56 ± 0.45 kcal/mol.
In the case of “SAGGKIEELAKELAKKLNIEKVEVEEKDGKLVVKLVVKDKKTNKYYRITIEVDDDGNIKISIEPLPPSAGGS [r16_433_TrROS_Hall]”, the “folding stability dG unfold” value in series [1] was 3.91 ± 0.2 kcal/mol; in series [2], 5.17 ± 0.12 kcal/mol; in series [3] it was 5.12 ± 0.2 kcal/mol.
Regarding “SAGGKIKIKINGKTYTVEDAEIIEVKKNKNGKKEIIIKIKVNGKTYEIVISEEDLKKIKPGDTITLKSAGGS [r16_638_TrROS_Hall]”, the figures for the “folding stability dG unfold” value in series [1], in series [2] and in series [3] were 2.4 ± 0.053 kcal/mol, 3.19 ± 0.045 kcal/mol and 2.96 ± 0.059 kcal/mol, respectively.
On to “SAGGKIKIVLSAEELEKKFGKSIEELAAELAKKLFPNKKVKVKKVKIEKDENGKEKLYVEVEIEPEKPSAGG [r13_723_TrROS_Hall]”, for which the figures for the “folding stability dG unfold” value in series [1], in series [2] and in series [3] were 2.91 ± 0.15 kcal/mol, 3.2 ± 0.073 kcal/mol and 3.11 ± 0.17 kcal/mol, respectively.
Consider “SAGGKITIEIEEEDGYLVIRIREEKEVYDEETGELKKEEKEITIVLPLEEAKKLAEELNLEIEIVEPSAGGS [r8_337_TrROS_Hall]”, for which the “folding stability dG unfold” value was 2.09 ± 0.079 kcal/mol in series [1], 2.49 ± 0.16 kcal/mol in series [2] and 2.42 ± 0.23 kcal/mol in series [3].
For “SAGGKIWIPMDFLKEIAEEGNIKEIEVNPDDGDMYTIKFPNLADKFGEPVTISIRRPPGGNPWIEIEPSAGG [r13_163_TrROS]” the same measures were 0.107 ± 0.1 kcal/mol, 1.08 ± 0.17 kcal/mol and 0.717 ± 0.15 kcal/mol.
Turning to “SAGGKKIEIEIVFKEGEKAPSAEEIAKKLLEEIPNIKITSIEIVDVEYDEETGEKYVVVKITIEVEPPSAGG [r13_10_TrROS_Hall]”, the “folding stability dG unfold” value in series [1] worked out at 2.96 ± 0.18 kcal/mol; in series [2], 3.14 ± 0.14 kcal/mol; in series [3], 3.17 ± 0.28 kcal/mol.
On to “SAGGKKIKAKVIEIKKIGDKVLVTIERPDGSPDEVLIDKKEVAEKITPESEVEIEVFPDGSVKIKVGSAGGS [r16_2_TrMRF]”, for which the figures for the “folding stability dG unfold” value in series [1], in series [2] and in series [3] were 1.96 ± 0.087 kcal/mol, 2.03 ± 0.13 kcal/mol and 2.15 ± 0.19 kcal/mol, respectively.
Take “SAGGKKIKITVKELKKKLEEEGYEIEEIEIYNKKTGKKIKTIKEGDVIELPENVKNVVIKVKIKKKKSAGGS [r8_243_TrROS_Hall]”: the “folding stability dG unfold” value was determined as 2.16 ± 0.19 kcal/mol in series [1], 2.86 ± 0.17 kcal/mol in series [2] and 2.57 ± 0.34 kcal/mol in series [3].
As to “SAGGKKIRIVMTEEEIKKLAEALAKELNVEVKIVKVEKKTVFDKNGKPVKTYVVVEIEVKKLPPGVKLSAGG [r13_943_TrROS_Hall]”, the “folding stability dG unfold” value in series [1] was determined as 1.3 ± 0.099 kcal/mol; in series [2], 1.56 ± 0.056 kcal/mol; in series [3] it was 1.57 ± 0.16 kcal/mol.
On the same counts, the results for “SAGGKKKKKVKIKIEIAIVIPEEDLSEEERKKLAEELAERLKRELAEKLGLSEDEIEEIEVTVYRLPPSAGG [r13_5_TrROS_Hall]” are 1.67 ± 0.092 kcal/mol, 2.33 ± 0.067 kcal/mol and 2.04 ± 0.21 kcal/mol.
Take “SAGGKKKKPKKKIKIKIVKVEKKYDKKTGKLKEVRIEIEIEAESEEEAKKLAEELAKKLNIEVEVKKKSAGG [r13_606_TrROS_Hall]”: the “folding stability dG unfold” value in series [1] amounted to 1.28 ± 0.11 kcal/mol; in series [2], 2.44 ± 0.096 kcal/mol; in series [3] it was 2.01 ± 0.32 kcal/mol.
For “SAGGKKKKTIVIVLEVSEEEAEKIIEALKKELEKKGFKIEKIEVRKVPDKPMVIVTIKLENGEELTFISAGG [r13_421_TrROS_Hall]” the same measures were 1.97 ± 0.052 kcal/mol, 2.64 ± 0.055 kcal/mol and 2.44 ± 0.073 kcal/mol.
Regarding “SAGGKKKKVITVEVPPEATAEELLAALKKADKVFIRTKDGKVREIKVGEKVSPEELKVKPGDTVEIYVSAGG [r13_399_TrROS_Hall]”, the “folding stability dG unfold” value was determined as 1.12 ± 0.12 kcal/mol in series [1], 1.74 ± 0.096 kcal/mol in series [2] and 1.53 ± 0.24 kcal/mol in series [3].
Consider “SAGGKKKKVKVKVVKVEKLENGTYKVVLEVEVDGKKITLVKEFKTKEDLEKKPKEIEITVEELKKLLKSAGG [r13_540_TrROS_Hall]”, for which the “folding stability dG unfold” value turned out to be 2.46 ± 0.13 kcal/mol in series [1], 4.32 ± 0.22 kcal/mol in series [2] and 3.87 ± 0.37 kcal/mol in series [3].
For “SAGGKKKVFLLENGELVVFDPETGKLEPVKLPEIPLTVEVEFEEGEGKIRVTVTNPAGLKLEFEFDFSAGGS [r16_453_TrMRF]”, the “folding stability dG unfold” value in series [1] was 2.21 ± 0.12 kcal/mol; in series [2], 3.69 ± 0.1 kcal/mol; in series [3] it was 3.19 ± 0.15 kcal/mol.
For “SAGGKKKVTIEIRKNPEEPGKYIIRVKVDGKEIEIEVSEEDLEEILAALKKLLPPGAKIEKIEIRELPSAGG [r13_519_TrROS_Hall]” the same measures were 2.38 ± 0.098 kcal/mol, 3.85 ± 0.081 kcal/mol and 3.45 ± 0.12 kcal/mol.
For the sequence “SAGGKKKYRIKITYKDEGKLYEVPEDVKATVDPNNVVYIEVDSKEAVDELVKAIAPKDGLEVEVEPGSAGGS [r8_131_TrMRF]”, the “folding stability dG unfold” value amounted to 0.52 ± 0.044 kcal/mol in series [1], 1.18 ± 0.087 kcal/mol in series [2] and 0.916 ± 0.093 kcal/mol in series [3].
In the case of “SAGGKKLLIKVRIEVFNENGELVREEEIEIEVEGMSEEELEELARELLAKLPPENVKIEVEIVELEESAGGS [r16_774_TrROS_Hall]”, the “folding stability dG unfold” value came to 4.34 ± 0.94 kcal/mol in series [1], 4.31 ± 0.37 kcal/mol in series [2] and 4.16 ± 0.35 kcal/mol in series [3].
With “SAGGKKPKIEVKIEFDEETGKLRIEIRTEDGKLIAEKEIEIDGVLFKVKVIVKDGKLVIEIEAFPKKSAGGS [r16_631_TrROS_Hall]”, the “folding stability dG unfold” value came to 2.79 ± 0.15 kcal/mol in series [1], 3.99 ± 0.12 kcal/mol in series [2] and 3.65 ± 0.25 kcal/mol in series [3].
Regarding “SAGGKKPKKLTPEQIEELAKALAPEGAEVKVEVVEVTEKTVVVKITVKDKETGEEKTIEITLPLPEESAGGS [r16_486_TrROS_Hall]”, the “folding stability dG unfold” value in series [1] worked out at 2.45 ± 0.18 kcal/mol; in series [2], 1.73 ± 0.14 kcal/mol; in series [3], 2.24 ± 0.22 kcal/mol.
Regarding “SAGGKKPKVKKVKVKLTLVDPETGEEVEVEAELYELPDGYVVLTVRNKKTGKTYRFVFKDGKLYLEPVSAGG [r13_117_TrROS_Hall]”, the “folding stability dG unfold” value is 2.88 ± 0.1 kcal/mol in series [1], 4.46 ± 0.11 kcal/mol in series [2] and 4.12 ± 0.35 kcal/mol in series [3].
Consider “SAGGKKTVKIEIVLPKEELEELLKKLLEEAKKKGLKVEVKVELKEVEVEVNGKKKKVLVLKVEIKVEPSAGG [r13_974_TrROS_Hall]”, for which the “folding stability dG unfold” value in series [1] turned out to be 3.17 ± 0.12 kcal/mol; in series [2] it was 3.76 ± 0.14 kcal/mol; in series [3] it was 3.55 ± 0.19 kcal/mol.
For “SAGGKKTYKVRIEIKVTDPNGKKRTIEIELEVPESEEEAEKLAKELAEKLKEKGYKVEIVKIEVEPLSAGGS [r16_525_TrROS_Hall]” the same measures were 3.98 ± 0.2 kcal/mol, 4.08 ± 0.064 kcal/mol and 4.03 ± 0.12 kcal/mol.
For the sequence “SAGGKKYKVIKEIEITLENGKKIKIKLIEYNEKTNEYILEITYPDGKKITITVPKGMSIEEALKKLLSSAGG [r13_470_TrROS_Hall]”, the “folding stability dG unfold” value in series [1] was 2.37 ± 0.16 kcal/mol; in series [2], 2.52 ± 0.051 kcal/mol; in series [3] it was 2.41 ± 0.12 kcal/mol.
With “SAGGKKYVLIKVKVRVEKEVNGEKKEVELELEILVPVDEETGKTPEEKAKELAKKLPPEVTEVKIEPVSAGG [r13_335_TrROS_Hall]”, the “folding stability dG unfold” value in series [1] amounted to 1.63 ± 0.15 kcal/mol; in series [2] it was 2.86 ± 0.061 kcal/mol; in series [3], 2.21 ± 0.31 kcal/mol.
Turning to “SAGGKLKIKIGDKEYTVESVEIIEERPLPGGGPVYLIRLKFKDGPALIEIPPNIPSSISNNGTLVAGSAGGS [r16_638_TrMRF]”, the “folding stability dG unfold” value in series [1] was 1.36 ± 0.04 kcal/mol; in series [2], 1.95 ± 0.058 kcal/mol; in series [3], 1.75 ± 0.095 kcal/mol.
As for “SAGGKLPLPPGTEVEFLFRSPLDPRRLYLVRVRFEPVPPDRLRLRPRVFNPETGEEVEFEFEVPLDEGSAGG [r13_268_TrMRF]”, the “folding stability dG unfold” value in series [1] is 2.46 ± 0.041 kcal/mol; in series [2], 3.234 ± 0.025 kcal/mol; in series [3], 3 ± 0.052 kcal/mol.
For “SAGGKLQLLLRSPDGNVEVALSFEKLPDGKVKVTATVRNKKTGRTYRLEVTFDLKTKKIEIKLEELPSAGGS [r16_684_TrROS_Hall]” the same measures were 4.78 ± 0.22 kcal/mol, 6.24 ± 0.14 kcal/mol and greater than 6 kcal/mol.
Regarding “SAGGKMKTVKVTITDKDGRKIEIVDVTVKDNKVYVVVKDKKTKKTIVLEFDTKEEAEEAIKKLLEAKSAGGS [r16_736_TrROS_Hall]”, the “folding stability dG unfold” value was determined as 0.976 ± 0.071 kcal/mol in series [1], 2.52 ± 0.066 kcal/mol in series [2] and 2.18 ± 0.34 kcal/mol in series [3].
For “SAGGKMLVKIKIKVTIYDKNGKPVKEVELELVFPSLEDLLNALKSLSPEKIKKVEIVSIEEIDEEDLSAGGS [r16_677_TrROS_Hall]” the same measures were 3.5 ± 0.26 kcal/mol, 4.06 ± 0.32 kcal/mol and 3.73 ± 0.21 kcal/mol.
Regarding “SAGGKMSLEDIKEVKITKISEEELKKNGTIKIEIYNKNGKLIKTIEIKIKPVKVKDKDGKEKTLEELKSAGG [r13_864_TrROS_Hall]”, the “folding stability dG unfold” value in series [1] was 0.897 ± 0.042 kcal/mol; in series [2] it was 1.49 ± 0.031 kcal/mol; in series [3], 1.29 ± 0.11 kcal/mol.
On the same counts, the results for “SAGGKMVKIEITLSPEEIEKIKEKLEEETGLEVEIKVEKNENGEVKLIITFKSEEAAKKALEKLGIESAGGS [r16_172_TrROS_Hall]” are 2.63 ± 0.16 kcal/mol, 3.7 ± 0.15 kcal/mol and 3.42 ± 0.14 kcal/mol.
